Laboratory results: publication PMC12582296

Key:
[1] = biological target: adaptor protein 2 (AP-2) complex; assay: ELISA-based peptide binding assay; details: read off a plot
[2] = biological target: HLA-E (wild type, EGFP at the C-terminus) (human)

| Substance | percentage of internalized HLA-E that reappeared on the cell surface within 1 h (recycling assay, HEK293T, peptide pulsing 50 µM) [2] [%] | also measured |
| --- | --- | --- |
| CD1b cytoplasmic tail peptide (CD1) (from UniProt P29016) Y5A |  | response (absorbance 450) ([1]; parent: est. 0.86): 0.64 |
| HLA-E cytoplasmic tail peptide (E) (from UniProt P13747) K310R; K322Q; W325S |  | response (absorbance 450) ([1]; parent: est. 1.5): 0.83 |
| Mtb44 peptide | 18 |  |
| RL9 peptide | 15 |  |
| VL9 peptide | 25 |  |
